Blank lines part the entries; values can stand above or below the substance they belong to.
Columns and labels:
[1] = biological target: RuvA (bound to Holliday junction DNA) (E. coli) (UniProt P0A809); experiment: single-molecule fluorescence imaging in zero mode waveguides (counting of Cy5 photobleaching steps); 400 nM RuvA with 40 nM biotinylated Cy3-Holliday junction DNA held by streptavidin in the nanoholes, unbound washed out; 400 nM Cy5-RuvB added; 20 mM HEPES-KOH pH 8.0, 10 mM MgCl2; 25 ± 2 °C; holes with a single DNA; step counts fitted for the 42% labeling ratio; 1 mM ADP
Chain of UniProt P0A809 (P0A809 whole entry): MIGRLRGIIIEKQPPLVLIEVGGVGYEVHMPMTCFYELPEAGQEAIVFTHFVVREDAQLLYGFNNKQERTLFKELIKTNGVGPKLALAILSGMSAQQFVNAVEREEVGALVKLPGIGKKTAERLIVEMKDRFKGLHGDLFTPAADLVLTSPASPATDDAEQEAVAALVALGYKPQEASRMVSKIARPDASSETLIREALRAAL

[2] = biological target: RuvA (bound to Holliday junction DNA) (E. coli) (UniProt P0A809); experiment: single-molecule fluorescence imaging in zero mode waveguides (counting of Cy5 photobleaching steps); 400 nM RuvA with 40 nM biotinylated Cy3-Holliday junction DNA held by streptavidin in the nanoholes, unbound washed out; 400 nM Cy5-RuvB added; 20 mM HEPES-KOH pH 8.0, 10 mM MgCl2; 25 ± 2 °C; holes with a single DNA; step counts fitted for the 42% labeling ratio; 1 mM ATPγS
[3] = biological target: RuvA (bound to Holliday junction DNA) (E. coli) (UniProt P0A809); experiment: single-molecule fluorescence imaging in zero mode waveguides (counting of Cy5 photobleaching steps); 400 nM RuvA with 40 nM biotinylated Cy3-Holliday junction DNA held by streptavidin in the nanoholes, unbound washed out; 400 nM Cy5-RuvB added; 20 mM HEPES-KOH pH 8.0, 10 mM MgCl2; 25 ± 2 °C; holes with a single DNA; step counts fitted for the 42% labeling ratio; no nucleotide
[4] = biological target: RuvA (bound to Holliday junction DNA) (E. coli) (UniProt P0A809); experiment: single-molecule fluorescence imaging in zero mode waveguides (counting of Cy5 photobleaching steps); 400 nM RuvA with 40 nM biotinylated Cy3-Holliday junction DNA held by streptavidin in the nanoholes, unbound washed out; 400 nM Cy5-RuvB added; 20 mM HEPES-KOH pH 8.0, 10 mM MgCl2; 25 ± 2 °C; holes with a single DNA; step counts fitted for the 42% labeling ratio; 0.5 mM ADP and 0.5 mM ATPγS
[5] = biological target: RuvA (bound to Holliday junction DNA) (E. coli) (UniProt P0A809)

Chain of RuvB (P0A812 whole entry): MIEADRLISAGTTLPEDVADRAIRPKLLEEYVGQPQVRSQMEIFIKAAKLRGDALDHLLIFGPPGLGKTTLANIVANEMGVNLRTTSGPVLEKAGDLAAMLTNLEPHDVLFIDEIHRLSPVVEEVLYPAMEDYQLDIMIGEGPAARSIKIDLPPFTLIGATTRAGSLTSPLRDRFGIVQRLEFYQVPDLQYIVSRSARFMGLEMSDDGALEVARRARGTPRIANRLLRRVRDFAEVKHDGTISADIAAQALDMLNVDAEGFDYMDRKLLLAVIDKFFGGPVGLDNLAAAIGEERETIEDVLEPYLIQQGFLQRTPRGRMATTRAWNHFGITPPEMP

% of Holliday junction DNA (with RuvA) that interacted with RuvB (fit, monomer model) [1]: 90%
% of RuvA-Holliday junction DNA complexes with 0 RuvB dimers bound (fit, dimer model, Cy5 at random) [1]: 11%
% of RuvA-Holliday junction DNA complexes with 0 RuvB dimers bound (fit, dimer model, one Cy5 per labelled dimer) [1]: 26%
% of RuvA-Holliday junction DNA complexes with 0 RuvBs bound (fit, monomer model) [1]: 10%
% of RuvA-Holliday junction DNA complexes with 1 RuvB dimers bound (fit, dimer model, Cy5 at random) [1]: 48%
% of RuvA-Holliday junction DNA complexes with 1 RuvB dimers bound (fit, dimer model, one Cy5 per labelled dimer) [1]: 35%
% of RuvA-Holliday junction DNA complexes with 1 RuvBs bound (fit, monomer model) [1]: 10%
% of RuvA-Holliday junction DNA complexes with 2 RuvB dimers bound (fit, dimer model, Cy5 at random) [1]: 41%
% of RuvA-Holliday junction DNA complexes with 2 RuvB dimers bound (fit, dimer model, one Cy5 per labelled dimer) [1]: 26%
% of RuvA-Holliday junction DNA complexes with 2 RuvBs bound (fit, monomer model) [1]: 21%
% of RuvA-Holliday junction DNA complexes with 3 RuvB dimers bound (fit, dimer model, Cy5 at random) [1]: 0%
% of RuvA-Holliday junction DNA complexes with 3 RuvB dimers bound (fit, dimer model, one Cy5 per labelled dimer) [1]: 13%
% of RuvA-Holliday junction DNA complexes with 3 RuvBs bound (fit, monomer model) [1]: 30%
% of RuvA-Holliday junction DNA complexes with 4 RuvB dimers bound (fit, dimer model, Cy5 at random) [1]: 0%
% of RuvA-Holliday junction DNA complexes with 4 RuvB dimers bound (fit, dimer model, one Cy5 per labelled dimer) [1]: 0%
% of RuvA-Holliday junction DNA complexes with 4 RuvBs bound (fit, monomer model) [1]: 29%
% of RuvA-Holliday junction DNA complexes with 5 RuvB dimers bound (fit, dimer model, Cy5 at random) [1]: 0%
% of RuvA-Holliday junction DNA complexes with 5 RuvB dimers bound (fit, dimer model, one Cy5 per labelled dimer) [1]: 0%
% of RuvA-Holliday junction DNA complexes with 5 RuvBs bound (fit, monomer model) [1]: 0%
% of RuvA-Holliday junction DNA complexes with 6 RuvB dimers bound (fit, dimer model, Cy5 at random) [1]: 0%
% of RuvA-Holliday junction DNA complexes with 6 RuvB dimers bound (fit, dimer model, one Cy5 per labelled dimer) [1]: 0%
% of RuvA-Holliday junction DNA complexes with 6 RuvBs bound (fit, monomer model) [1]: 0%
% of Holliday junction DNA (with RuvA) that interacted with RuvB (fit, monomer model) [2]: 92%
% of RuvA-Holliday junction DNA complexes with 0 RuvB dimers bound (fit, dimer model, Cy5 at random) [2]: 11%
% of RuvA-Holliday junction DNA complexes with 0 RuvB dimers bound (fit, dimer model, one Cy5 per labelled dimer) [2]: 23%
% of RuvA-Holliday junction DNA complexes with 0 RuvBs bound (fit, monomer model) [2]: 8%
% of RuvA-Holliday junction DNA complexes with 1 RuvB dimers bound (fit, dimer model, Cy5 at random) [2]: 36%
% of RuvA-Holliday junction DNA complexes with 1 RuvB dimers bound (fit, dimer model, one Cy5 per labelled dimer) [2]: 32%
% of RuvA-Holliday junction DNA complexes with 1 RuvBs bound (fit, monomer model) [2]: 12%
% of RuvA-Holliday junction DNA complexes with 2 RuvB dimers bound (fit, dimer model, Cy5 at random) [2]: 53%
% of RuvA-Holliday junction DNA complexes with 2 RuvB dimers bound (fit, dimer model, one Cy5 per labelled dimer) [2]: 27%
% of RuvA-Holliday junction DNA complexes with 2 RuvBs bound (fit, monomer model) [2]: 18%
% of RuvA-Holliday junction DNA complexes with 3 RuvB dimers bound (fit, dimer model, Cy5 at random) [2]: 0%
% of RuvA-Holliday junction DNA complexes with 3 RuvB dimers bound (fit, dimer model, one Cy5 per labelled dimer) [2]: 14%
% of RuvA-Holliday junction DNA complexes with 3 RuvBs bound (fit, monomer model) [2]: 19%
% of RuvA-Holliday junction DNA complexes with 4 RuvB dimers bound (fit, dimer model, Cy5 at random) [2]: 0%
% of RuvA-Holliday junction DNA complexes with 4 RuvB dimers bound (fit, dimer model, one Cy5 per labelled dimer) [2]: 4%
% of RuvA-Holliday junction DNA complexes with 4 RuvBs bound (fit, monomer model) [2]: 31%
% of RuvA-Holliday junction DNA complexes with 5 RuvB dimers bound (fit, dimer model, Cy5 at random) [2]: 0%
% of RuvA-Holliday junction DNA complexes with 5 RuvB dimers bound (fit, dimer model, one Cy5 per labelled dimer) [2]: 0%
% of RuvA-Holliday junction DNA complexes with 5 RuvBs bound (fit, monomer model) [2]: 12%
% of RuvA-Holliday junction DNA complexes with 6 RuvB dimers bound (fit, dimer model, Cy5 at random) [2]: 0%
% of RuvA-Holliday junction DNA complexes with 6 RuvB dimers bound (fit, dimer model, one Cy5 per labelled dimer) [2]: 0%
% of RuvA-Holliday junction DNA complexes with 6 RuvBs bound (fit, monomer model) [2]: 0%
% of Holliday junction DNA (with RuvA) that interacted with RuvB (fit, monomer model) [3]: 77%
% of RuvA-Holliday junction DNA complexes with 0 RuvB dimers bound (fit, dimer model, Cy5 at random) [3]: 35%
% of RuvA-Holliday junction DNA complexes with 0 RuvB dimers bound (fit, dimer model, one Cy5 per labelled dimer) [3]: 52%
% of RuvA-Holliday junction DNA complexes with 0 RuvBs bound (fit, monomer model) [3]: 23%
% of RuvA-Holliday junction DNA complexes with 1 RuvB dimers bound (fit, dimer model, Cy5 at random) [3]: 65%
% of RuvA-Holliday junction DNA complexes with 1 RuvB dimers bound (fit, dimer model, one Cy5 per labelled dimer) [3]: 38%
% of RuvA-Holliday junction DNA complexes with 1 RuvBs bound (fit, monomer model) [3]: 37%
% of RuvA-Holliday junction DNA complexes with 2 RuvB dimers bound (fit, dimer model, Cy5 at random) [3]: 0%
% of RuvA-Holliday junction DNA complexes with 2 RuvB dimers bound (fit, dimer model, one Cy5 per labelled dimer) [3]: 10%
% of RuvA-Holliday junction DNA complexes with 2 RuvBs bound (fit, monomer model) [3]: 40%
% of RuvA-Holliday junction DNA complexes with 3 RuvB dimers bound (fit, dimer model, Cy5 at random) [3]: 0%
% of RuvA-Holliday junction DNA complexes with 3 RuvB dimers bound (fit, dimer model, one Cy5 per labelled dimer) [3]: 0%
% of RuvA-Holliday junction DNA complexes with 3 RuvBs bound (fit, monomer model) [3]: 0%
% of RuvA-Holliday junction DNA complexes with 4 RuvB dimers bound (fit, dimer model, Cy5 at random) [3]: 0%
% of RuvA-Holliday junction DNA complexes with 4 RuvB dimers bound (fit, dimer model, one Cy5 per labelled dimer) [3]: 0%
% of RuvA-Holliday junction DNA complexes with 4 RuvBs bound (fit, monomer model) [3]: 0%
% of RuvA-Holliday junction DNA complexes with 5 RuvB dimers bound (fit, dimer model, Cy5 at random) [3]: 0%
% of RuvA-Holliday junction DNA complexes with 5 RuvB dimers bound (fit, dimer model, one Cy5 per labelled dimer) [3]: 0%
% of RuvA-Holliday junction DNA complexes with 5 RuvBs bound (fit, monomer model) [3]: 0%
% of RuvA-Holliday junction DNA complexes with 6 RuvB dimers bound (fit, dimer model, Cy5 at random) [3]: 0%
% of RuvA-Holliday junction DNA complexes with 6 RuvB dimers bound (fit, dimer model, one Cy5 per labelled dimer) [3]: 0%
% of RuvA-Holliday junction DNA complexes with 6 RuvBs bound (fit, monomer model) [3]: 0%
% of Holliday junction DNA (with RuvA) that interacted with RuvB (fit, dimer model of Table 2) [4]: 97%
% of Holliday junction DNA (with RuvA) that interacted with RuvB (fit, monomer model) [4]: 98%
% of RuvA-Holliday junction DNA complexes with 0 RuvB dimers bound (fit, dimer model, Cy5 at random) [4]: 3%
% of RuvA-Holliday junction DNA complexes with 0 RuvB dimers bound (fit, dimer model, one Cy5 per labelled dimer) [4]: 14%
% of RuvA-Holliday junction DNA complexes with 0 RuvBs bound (fit, monomer model) [4]: 2%
% of RuvA-Holliday junction DNA complexes with 1 RuvB dimers bound (fit, dimer model, Cy5 at random) [4]: 24%
% of RuvA-Holliday junction DNA complexes with 1 RuvB dimers bound (fit, dimer model, one Cy5 per labelled dimer) [4]: 29%
% of RuvA-Holliday junction DNA complexes with 1 RuvBs bound (fit, monomer model) [4]: 5%
% of RuvA-Holliday junction DNA complexes with 2 RuvB dimers bound (fit, dimer model, Cy5 at random) [4]: 70%
% of RuvA-Holliday junction DNA complexes with 2 RuvB dimers bound (fit, dimer model, one Cy5 per labelled dimer) [4]: 33%
% of RuvA-Holliday junction DNA complexes with 2 RuvBs bound (fit, monomer model) [4]: 8%
% of RuvA-Holliday junction DNA complexes with 3 RuvB dimers bound (fit, dimer model, Cy5 at random) [4]: 3%
% of RuvA-Holliday junction DNA complexes with 3 RuvB dimers bound (fit, dimer model, one Cy5 per labelled dimer) [4]: 19%
% of RuvA-Holliday junction DNA complexes with 3 RuvBs bound (fit, monomer model) [4]: 31%
% of RuvA-Holliday junction DNA complexes with 4 RuvB dimers bound (fit, dimer model, Cy5 at random) [4]: 0%
% of RuvA-Holliday junction DNA complexes with 4 RuvB dimers bound (fit, dimer model, one Cy5 per labelled dimer) [4]: 4%
% of RuvA-Holliday junction DNA complexes with 4 RuvBs bound (fit, monomer model) [4]: 37%
% of RuvA-Holliday junction DNA complexes with 5 RuvB dimers bound (fit, dimer model, Cy5 at random) [4]: 0%
% of RuvA-Holliday junction DNA complexes with 5 RuvB dimers bound (fit, dimer model, one Cy5 per labelled dimer) [4]: 1%
% of RuvA-Holliday junction DNA complexes with 5 RuvBs bound (fit, monomer model) [4]: 14%
% of RuvA-Holliday junction DNA complexes with 6 RuvB dimers bound (fit, dimer model, Cy5 at random) [4]: 0%
% of RuvA-Holliday junction DNA complexes with 6 RuvB dimers bound (fit, dimer model, one Cy5 per labelled dimer) [4]: 0%
% of RuvA-Holliday junction DNA complexes with 6 RuvBs bound (fit, monomer model) [4]: 3%
Substance: Cy5-labeled RuvB-S39C (from UniProt P0A812 1-336) (enzyme)

ratio of fluorescent spots of Cy3-Holliday junction DNA to nanoholes after addition of 400 nM RuvB with 1 mM ATP and 5 min at 25 °C (about 90% before the addition); loss of spots by branch migration [5]: 16%
Substance: RuvB (from UniProt P0A812 1-336) (enzyme)

— article PMC4677358
